In data set [1] the target is T1, Bovine Serum Albumin (BSA) (Bos taurus, UniProt P02769).
T1 construct: purchased Life Technologies A13100
Nature of the data set: Controlled release capability for acidic protein encapsulated in hydrogel. The procedure:
A phosphate buffer (pH 7.4) was employed as the buffer. Moreover, Bovine Serum Albumin (BSA) fluorescently labeled with Alexa Fluor™ 488 (A13100, Life Technologies) was employed as the acidic protein to be encapsulated into the hydrogel.
The components were added to the tube so that the buffer salt concentration is 0.15 M, the BSA concentration is 5 μM, and the polypeptide concentration is 0.25-1 wt. %, and mixed by vortex. The mixture was added to the Multiwell Insert System (351130, BD) at 50 μL each, and left overnight in an incubator at 37 degrees (CO2 incubator for cell culture, MCO-18AIC, SANYO) with shading to prepare BSA-encapsulating hydrogels. In the incubator at 37 degrees, the Insert System was immersed in a 96-well flat bottom plate (353928, BD) with a buffer identical to the hydrogel added at 225 μL each, and the plate was shaken with a plate shaker (MICRO PLATE MIXER NS-P, AS ONE Corporation, rotation speed: ⅕ of scale) to initiate the test (0 hours). Subsequently, the fluorescence amount that leaked out over time on the flat bottom plate side was measured with a fluorescence plate reader (SpectraMax M3, Molecular Devices, LLC.). A standard curve was created with the identical fluorescently-labeled BSA, and the protein concentration was calculated from the amount of fluorescent dye that leaked out. A solution of only BSA added to the buffer (W/O SAP) was employed as the control.

A short description of data set [2]: Steel ball loading test of hydrogel property. Format: physicochemical. Also noted: key to position of the steel ball / hydrogel state: The state of the steel ball staying near the hydrogel surface was set as ◯; sinking after loading and staying internally was set as Δ; sinking to the bottom of the Durham's tube was set as X; * was added to those where the hydrogel was not uniform and clouding or insoluble matter (precipitate) was observed. On the procedure: Ten mg of the sugar chain-polypeptide complex or 10 mg of the control polypeptide were dissolved in 500 μL of ultrapure water to prepare 2 wt. % polypeptide solutions. […] In doing so, citrate-phosphate buffer (pH 2.0 and 3.5), phosphate buffer (pH 7.4), and phosphate-sodium hydroxide buffer (pH 11.5) were employed as the buffer. The surface of the hydrogel inside the Durham's tube was horizontally placed, left still for 20 minutes under room temperature conditions, and a steel ball (diameter 1.56 mm, weight 16 mg, FUNABE SEIKO Co., Ltd.) was loaded on the hydrogel. After 10 minutes, the position of the steel ball was observed by visual confirmation.
The position of the steel ball inside the Durham's tube was evaluated in 3 grades. The state of the steel ball staying near the hydrogel surface was set as ◯, sinking after loading and staying internally was set as Δ, and sinking to the bottom of the Durham's tube was set as X. In addition, * was added to those where the hydrogel was not uniform and clouding or insoluble matter (precipitate) was observed. A hydrogel where the steel ball stays around the surface (◯) and no clouding or insoluble matter is seen (no *) was thought to be a gel that is transparent and uniform.

Data set [3] is described as follows: Steel ball loading test of hydrogels comprising rat blood plasma (utility as hemostatic matrix). The note with it: polypeptide 0.5 wt. %. Format: physicochemical. On the procedure: Aqueous polypeptide solutions were prepared with a method similar to Example 1. Blood was collected from 7 weeks-old Crlj:WI rats with heparin sodium injection (Ajinomoto), and blood plasma was obtained from the supernatant after centrifugation treatment. The aqueous polypeptide solution, blood plasma, and PBS were added to a Durham's tube, and hydrogels was prepared so that the plasma concentration was 5-50% and the polypeptide concentration was 0.5 wt. %. Subsequently, these were left for 20 minutes at room temperature condition, and then steel ball loading tests were carried out with a method similar to Example 1.

The nature of data set [4]: Kinetic viscosity measurement with rheometer. Particulars: 0.5 wt. % hydrogel, pH 7, 25 degrees. In kind it is physicochemical. On the procedure: A rheometer (MCR302, Anton Paar GmbH) equipped with a stainless steel parallel plate having a diameter of 25 mm with 0.3 mm gap height was employed for kinetic viscosity measurement. […] Five millimolars of aqueous sodium hydroxide solution was added to these aqueous polypeptide solutions in order to adjust the pH to prepare 0.5 wt. % hydrogels at pH 7. Subsequently, these hydrogels were quickly transferred to a rheometer set at 25 degrees, and phase angle (tan δ) was monitored over a time course. (frequency=1 Hz, distortion=10%)

The nature of data set [5]: Circular dichroism (CD) measurement of β sheet structure. Format: physicochemical. The procedure: In general, the characteristics of the wavelengths observed when a substance has a β sheet structure are a positive absorption at around 197 nm and a negative absorption at around 216 nm. For this reason, focus was placed on the size of these wavelengths in the present invention, and the influence of pH on the β sheet structure was investigated.
One to ten millimolars of aqueous sodium hydroxide solutions were added to each of these aqueous polypeptide solutions to adjust the pH, and 100 mM aqueous polypeptide solutions at having pH 2 or pH 7 were created. These aqueous solutions were transferred to quartz cells having an optical path length of 0.1 cm. The CD spectrum was then measured with a spectrum polarimeter (J-805, Jasco) at wavelengths of 185-260 nm for ellipticity (millidegree). The mean residue ellipticity θ was calculated with the following formula: [θ]=(θobs/10·l·c)/r
wherein θobs represents the ellipticity measured in millidegree, l represents the cell length (cm), c represents the concentration (M), and r represents the number of amino acid residues.

[6] abbreviates: hydrogel concentration 0.5 wt. %, pH 3.5.
The mark [7] stands for this setting: hydrogel concentration 0.5 wt. %, pH 7.4.

T1 sequence (P02769 25-607): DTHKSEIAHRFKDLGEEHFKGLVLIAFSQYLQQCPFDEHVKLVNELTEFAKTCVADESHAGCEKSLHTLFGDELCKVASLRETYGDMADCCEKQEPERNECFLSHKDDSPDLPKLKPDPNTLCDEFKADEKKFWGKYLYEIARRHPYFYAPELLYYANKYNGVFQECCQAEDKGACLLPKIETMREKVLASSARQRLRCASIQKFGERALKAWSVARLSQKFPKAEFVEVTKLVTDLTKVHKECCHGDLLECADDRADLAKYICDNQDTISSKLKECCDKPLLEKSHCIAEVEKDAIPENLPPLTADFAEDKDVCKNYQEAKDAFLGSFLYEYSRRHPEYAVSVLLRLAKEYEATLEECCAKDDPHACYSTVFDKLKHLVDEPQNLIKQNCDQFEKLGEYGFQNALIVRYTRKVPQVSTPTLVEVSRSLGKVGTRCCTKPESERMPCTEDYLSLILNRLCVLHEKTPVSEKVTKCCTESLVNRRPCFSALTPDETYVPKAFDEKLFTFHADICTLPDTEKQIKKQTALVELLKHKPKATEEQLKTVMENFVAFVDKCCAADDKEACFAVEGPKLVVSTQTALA

As to C(DiGlcNAc)-(RADA)4 [Compound 2], the “controlled release capability (BSA leakage speed vs solution without any polypeptide)” value in data set [1] (pH 7.4, concentration as low as 0.25 wt. %) is listed as “showing controlled release capability”.

In the case of C(PEG2000)-(RADA)4 [Compound 14], in data set [2] (0.5 wt. %, pH 3.5 and pH 7.4), the “hydrogel formed (in words)” value is listed as “uniform hydrogels were not formed”. The “position of the steel ball / hydrogel state” value in data set [2] (setting [6]) and in data set [2] (setting [7]) was “X” in each case.

Consider “C(Maltotriose)-(RADA)4-C(Maltotriose) [Compound 11]”, for which, in data set [2] (0.5 wt. %, pH 3.5 and pH 7.4), the “hydrogel formed (in words)” value is “transparent and uniform hydrogels”. Besides, the “position of the steel ball / hydrogel state” value in data set [2] (setting [6]) and in data set [2] (setting [7]) was “◯” throughout.

On to 3C(Maltose)-(RADA)4 [Compound 12], for which, in data set [2] (0.5 wt. %, pH 3.5 and pH 7.4), the “hydrogel formed (in words)” value was “transparent and uniform hydrogels”. The “position of the steel ball / hydrogel state” value in data set [2] (setting [6]) and in data set [2] (setting [7]) was “◯” each time.

In the case of 2C(Maltose)-(RADA)4 [Compound 8], in data set [2] (Example 4, 0.5 wt. %, pH 7.4), the “hydrogel formed (in words)” value was “did not form hydrogels”. For the same substance, the entries for the “position of the steel ball / hydrogel state” value in data set [2] (setting [6]) and in data set [2] (setting [7]) were “◯*” and “X*”, respectively.

As for “(RATARAEA)2 (RATARAEARATARAEA) [Compound 16]”, the “hydrogel formed (in words)” value in data set [2] (0.5 wt. %, pH 3.5 and pH 7.4) was “ununiform and clouded hydro gel”. The “position of the steel ball / hydrogel state” value in data set [2] (setting [6]) and in data set [2] (setting [7]) was “X*” throughout.

Regarding “C(Maltose)-(RADA)4-C(Maltose) [Compound 10]”, the “hydrogel formed (in words)” value in data set [2] (Example 4, 0.5 wt. %, pH 7.4) is recorded as “did not form hydrogels”. In addition, the “position of the steel ball / hydrogel state” value is listed as “◯*” in data set [2] (setting [6]) and “X*” in data set [2] (setting [7]).

Consider (RADA)4 [Compound 1], for which the “position of the steel ball / hydrogel state” value in data set [3] (plasma concentration 5%) was “X*”; in data set [3] (plasma concentration 10%), “X*”; in data set [3] (plasma concentration 25%), “Δ*”; in data set [3] (plasma concentration 50%), “Δ*”; in data set [2] (setting [6]), “X*”; in data set [2] (setting [7]) it was “X*”. Moreover, the “position of the steel ball / hydrogel state” value in data set [2] (peptide concentration 1 wt. %, pH 2.0) was “◯”; in data set [2] (peptide concentration 1 wt. %, pH 3.5) it was “Δ*”; in data set [2] (peptide concentration 1 wt. %, pH 7.4), “X*”; in data set [2] (peptide concentration 1 wt. %, pH 11.5), “X*”. Further, in data set [3] (plasma concentration 5-50%), the “hydrogel formed in presence of blood plasma (in words)” value is “clouded and insoluble matters were observed at all plasma concentrations”. In addition, the “rigidity of hydrogel formed” value in data set [4] is “a fragile hydrogel is formed, or an ununiform hydrogel that is only partially rigid is formed”. The “phase angle (tan δ) over a time course” value in data set [4] (frequency 1 Hz, distortion 10%) is listed as “large phase angle”. Moreover, the “hydrogel formed (in words)” value was “transparent and uniform hydrogel” in data set [2] (1 wt. %, pH 2.0); “ununiform hydrogel with clouding” in data set [2] (1 wt. %, pH 3.5 or higher). In addition, the “controlled release capability (BSA leakage speed vs solution without any polypeptide)” value in data set [1] (pH 7.4, polypeptide 0.5 wt. % or less) was “does not possess controlled release capability”. Besides, the “leakage of BSA encapsulated in the hydrogel” value in data set [1] (phosphate buffer pH 7.4, 37 degrees, polypeptide 0.25-1 wt. %) is recorded as “leaked out in a short time”. The “β sheet structure formation” value in data set [5] (neutral pH) is reported as “formed almost no β sheet structure”. The “molar ellipticity (CD)” value in data set [5] (pH 2, 100 mM aqueous polypeptide solution) is “high molar ellipticity”; in data set [5] (pH 7, 100 mM aqueous polypeptide solution) it was “significantly reduced”.

In the case of 2C(Maltotriose)-(RADA)4 [Compound 9], in data set [2] (0.5 wt. %, pH 3.5 and pH 7.4), the “hydrogel formed (in words)” value was “transparent and uniform hydrogels”. The “position of the steel ball / hydrogel state” value in data set [2] (setting [6]) and in data set [2] (setting [7]) was “◯” each time.
